Results published in the supplement of paper PMC10126150.
± gives the standard deviation of the averaged measurements.

Test system: ATP
Assay: switch fluorescence ratio, 500 uM ATP over buffer (Cy3 cluster intensity, sum of 5 cycles each) (fold (ratio)); higher = stronger signal-on switching upon ATP binding; sequences stand for … in TCGTCGGCAGCGTCAGATGTGTATAAGAGACAGTTTTTTTTTTTTTTTTTTTTTTTTT…TC
Conditions: aptamer strand: ATP DNA aptamer (quencher-CACCTGGGGGAGTATTGCGGAGGAAGG + anchor), 100 nM annealed; ATP concentration: 500 uM
Summary of the method: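 Cy3-labelled switching-strand clusters on a modified Illumina MiSeq flow-cell were annealed to 100 nM quencher-labelled ATP aptamer, imaged in selection buffer, then imaged after 15 min with 500 uM ATP at 22 °C. Five buffer/ATP cycles ran, with NaOH stripping and re-annealing between them. The fluorescence ratio is summed target-cycle over summed buffer-cycle Cy3 intensity per cluster, averaged per switch-domain sequence. Clusters outside 100-1000 RFU were excluded.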
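Further: ATP exposure 15 min at 22 °C before imaging.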

Sequence | switch fluorescence ratio
AAGACTTTGT | 1 ± 0.024
TGAGTCTGCG | 1.02 ± 0.12
AACGATGAAG | 1.01 ± 0.043
GGGGTTTAGG | 0.989 ± 0.026
AAGTTAGTGG | 1.01 ± 0.04
TGAATTTGTA | 0.993 ± 0.03
CATTTGTTAG | 0.9657 ± 0.0071
TGCAATGTTT | 1.38 ± 0.52
GGAGTTTCGT | 0.988 ± 0.023
AGCCGTCCCC | 0.993 ± 0.02
ACGCGGTGAC | 1.09 ± 0.025
TACAGCTAAA | 1.03 ± 0.032
GCGCGGTGTT | 0.988 ± 0.026
ATCAGGGCT | 1.01 ± 0.028
TCGGGCCGG | 0.994 ± 0.023
AGGTGTTCGG | 0.976 ± 0.019
CGACCATAGC | 1.84 ± 0.19
CAATGATCTT | 1.02 ± 0.014
AAGTTAAGGC | 1.02 ± 0.013
TAGGGGTTCA | 1.013 ± 0.002
TGGACGAGGG | 0.992 ± 0.041
TTATCTCATT | 1 ± 0.028
TTTTATTGTA | 0.999 ± 0.032
CGGGTTTACG | 1 ± 0.025
TAAAGGCTGG | 1.015 ± 0.0052

Sequence | switch fluorescence ratio
GGGAGGAGGC | 0.889 ± 0.04
ACGTATCTCT | 1.17 ± 0.11
TCGATGATGG | 1.05 ± 0.013
TCACCGACTA | 1.1952 ± 0.00033
GGAGATTGAT | 1 ± 0.021
ATTTGGTACC | 0.977 ± 0.043
TCGAATTCGC | 1.0071 ± 8.5e-05
AGGCAGGAGG | 1 ± 0.015
GGTATTCGGT | 0.971 ± 0.04
GATTTGGAAT | 0.986 ± 0.037
GATGTGCAGG | 0.9915 ± 0.0084
AAGTTTTTGT | 0.9997 ± 0.0081
GTCACCAGGG | 1.58 ± 0.082
GTTGGTATT | 1.01 ± 0.024
GAATTAGACG | 0.977 ± 0.01
TAGAACCTCG | 1.02 ± 0.057
TTAAATAATC | 1 ± 0.035
ATGACGGAGC | 1.94 ± 0.31
CAAATGGTTT | 1.05 ± 0.08
GCGGTGACGG | 1 ± 0.062
TTAAGAACAA | 1.02 ± 0.03
TTTCCGAGGG | 1.43 ± 0.63
GGGATTGGGG | 1 ± 0.012
GTGTTATAGT | 0.993 ± 0.024
TCTATGAAAA | 0.9818 ± 0.004

Sequence | switch fluorescence ratio
CTTAAGGGAT | 1.0149 ± 0.00017
GAGGGTGGAA | 1.04 ± 0.12
GCGTGAGCAC | 0.9745 ± 0.0089
TCATGCTTTT | 1.03 ± 0.019
GGAGAGGGAG | 0.9883 ± 0.0015
GTGACGGGGC | 1.02 ± 0.058
TTGATGAAAT | 0.984 ± 0.014
TTTTTAAAG | 1.022 ± 0.0083
CGGGGGCGGG | 0.99 ± 0.042
GATGGGGGTT | 1 ± 0.012
AAGGGGTCGG | 1 ± 0.036
GTGGTTGCGG | 0.987 ± 0.04
TTAATGAATA | 1.01 ± 0.035
GATCTAGAGG | 0.994 ± 0.019
GGTGTTTATG | 0.9841 ± 0.0034
GTTATTTTCG | 0.987 ± 0.028
GGAATGTGGT | 1.027 ± 0.002
TATTTTATGG | 0.998 ± 0.025
TCGTTAATGT | 1.01 ± 0.035
TTTTACCTTG | 1.028 ± 0.01
CCTTTGTTTT | 1.05 ± 0.091
TTAAGAGGTG | 1.09 ± 0.034
GGAGGGTGCG | 1.011 ± 0.0064
TGGCTTTTAA | 1.013 ± 0.007
GCGTCTTTGG | 0.988 ± 0.026

Sequence | switch fluorescence ratio
GTTAGGAGAA | 0.9807 ± 0.0092
GGATGGCGGA | 0.997 ± 0.024
CCGGGTAAGG | 0.9989 ± 0.0045
CTGTAAGGTC | 1.01 ± 0.019
GTTACTTGAG | 0.9985 ± 0.005
GGGGGTGTGT | 1.01 ± 0.035
AGGCCTTTTG | 0.956 ± 0.033
ACCGATTTTG | 0.994 ± 0.022
ATGGCTGGCT | 1.04 ± 0.041
TGAATGCGCC | 1.01 ± 0.025
TGTGGGGCAG | 0.968 ± 0.03
GCAAAAAAAC | 1.02 ± 0.067
TTGTTTTCGT | 1.01 ± 0.039
AAAGGTAATA | 1 ± 0.025
GGGAAGAAGT | 1.011 ± 0.0084
CGTTAGGATG | 0.984 ± 0.011
GGATTGCTCG | 1.03 ± 0.029
GACTAAAAGA | 0.99 ± 0.055
ACGTTGGCGG | 1 ± 0.013
AGCGTGGTGG | 0.958 ± 0.033
GGGTGAAGGA | 0.989 ± 0.042
ATGCTTTTTT | 0.994 ± 0.017
GCAGATTTTG | 0.98 ± 0.038
GTGTACGGTG | 1.01 ± 0.013
GACATGAGTT | 0.984 ± 0.026

Sequence | switch fluorescence ratio
GGGGGGGTGT | 1.01 ± 0.05
AGATAGGGCA | 0.994 ± 0.032
CTGTGGGGCG | 1.01 ± 0.045
CACAATATCT | 1.124 ± 0.0037
AAAGAGGGAT | 0.986 ± 0.053
TTACGTCCGT | 1.04 ± 0.02
GGGGCGTATC | 1.01 ± 0.04
ATCCACGCTA | 1.45 ± 0.022
TAAGGTTCTT | 1.01 ± 0.011
GGGGTTCGAA | 0.963 ± 0.016
TTACTTTCCG | 1.11 ± 0.019
CGTTCGCGCG | 1.02 ± 0.023
TGGGGGCGGC | 1.046 ± 0.0061
GAGTTTAAGA | 0.979 ± 0.024
GCAGTCCTTT | 0.958 ± 0.029
AAACTACTAC | 1.147 ± 0.0017
GCTGTTTCAG | 0.986 ± 0.016
CGCTATATCG | 1.09 ± 0.081
GGGCTCTATC | 0.9913 ± 0.0025
GGATAATGGC | 0.94 ± 0.059
TGCACGGTTG | 1.002 ± 0.0026
TTTTATTGAA | 1 ± 0.03
GCTTAACTTC | 0.982 ± 0.039
AGTTGAAGGA | 0.986 ± 0.027
CCTGTCATGT | 1.02 ± 0.013

Sequence | switch fluorescence ratio
AAGATGGGGG | 0.998 ± 0.033
GAGAACGGTG | 1 ± 0.032
ATACGAAGGA | 1 ± 0.028
ATGTTAGGGC | 0.975 ± 0.032
TGATTTTGGT | 1.01 ± 0.025
TATCATCTTT | 1.01 ± 0.054
TTTGCTTTTA | 1.04 ± 0.023
TTGGTTCGTT | 0.994 ± 0.025
GGTCGTTTTT | 1.044 ± 0.0029
ACCGAGGGGT | 1.06 ± 0.077
ATAAGGCCTA | 0.991 ± 0.038
TTGTACTATC | 1.01 ± 0.063
ACTGAGTTGG | 0.986 ± 0.013
TGAAGATTAT | 0.988 ± 0.012
AGTGCGGGGA | 0.993 ± 0.04
TACGTTAGCT | 1.119 ± 0.0018
TGTTATTACC | 1 ± 0.013
GGGGGCCCCA | 1.01 ± 0.022
TGGAGCCTAT | 0.991 ± 0.031
GTATCGAGAG | 1.01 ± 0.013
CATGTGATTT | 0.992 ± 0.023
AGCGTCGCAG | 0.9715 ± 0.0087
TCCGTATTTT | 1.29 ± 0.41
AAATAGAAGA | 1.03 ± 0.038
ACATGAGTGT | 1.02 ± 0.024

Sequence | switch fluorescence ratio
AATGAATGGG | 0.981 ± 0.018
TTTCGCAGGT | 1.24 ± 0.15
AGTCTTGCTG | 0.989 ± 0.02
TCAAAATTGG | 1.004 ± 0.0082
TGGGTTATTA | 1 ± 0.018
GGGGGTTCGG | 0.992 ± 0.021
CAAGTAGGTC | 0.98 ± 0.061
AAAACAGTTC | 1.04 ± 0.048
TGGCGGCCGA | 0.996 ± 0.021
TATCAGGGGT | 1.08 ± 0.073
AGTTTGGCTT | 0.99 ± 0.011
TGAACTTAGT | 0.995 ± 0.02
TTTCGGAGGA | 0.991 ± 0.018
TTACCTTTGG | 1.005 ± 0.0087
AACGGTTAAA | 1.011 ± 0.0022
CTGGGGACGT | 0.9821 ± 0.0081
TGGCTATGCG | 0.969 ± 0.029
AAGATGACTA | 0.986 ± 0.042
TTATCGGCCA | 1 ± 0.067
CTGTTATTGT | 0.972 ± 0.024
TGGGAGGGGC | 1.01 ± 0.021
GACAGTGGTT | 1.05 ± 0.059
CGGGGAGGCA | 0.997 ± 0.031
GTGGGGTTGC | 0.984 ± 0.021
GCTTATTCGG | 0.959 ± 0.03

Sequence | switch fluorescence ratio
GTTGCACTGG | 1.01 ± 0.011
TAGCGTGTTG | 1.02 ± 0.031
AGAGTGGACA | 1 ± 0.042
GTAATCTGTT | 0.989 ± 0.075
AAATTCGGGT | 0.981 ± 0.016
TTTCAGTATT | 1.01 ± 0.029
GTGTGCCAGC | 0.969 ± 0.013
TAAAAAATGG | 1 ± 0.044
CGATATACTG | 1.09 ± 0.074
AATTTTGGCT | 0.964 ± 0.03
TGTGGTCCAA | 0.9855 ± 0.0036
GTTGTCATGT | 0.991 ± 0.017
GGTTTTAAAA | 0.99 ± 0.013
GTCGGGGGGT | 1 ± 0.025
TCGTTTGATT | 1.01 ± 0.019
CGGCATTTTT | 1.03 ± 0.036
CCGGTATAAT | 1.144 ± 0.0026
TCTCTGGCAG | 1.17 ± 0.17
GGTGGGATTA | 1.014 ± 0.009
CTAGTCACCG | 0.999 ± 0.019
TTTGATTTGT | 1.042 ± 0.0087
GGGGTTAACG | 0.996 ± 0.031
AGCGGAGAGT | 1 ± 0.029
ATAGAGGTAG | 0.976 ± 0.017
TTGTTGTCTA | 0.995 ± 0.015
